These results are taken from publication PMC3324987 (Frontiers in Molecular Neuroscience, 2012).

The test system of one experiment is apo-CaBP1. Description: ITC and HSQC of NSCaTE binding to apo-CaBP1. Also noted: species or system human. Particulars: ITC and NMR, compared to Ca^2+-CaBP1.
The target in experiment [1] is N-lobe of calmodulin (residues 1-77) (UniProt P0DP23 2-78). Description: other fluorescence titration.
For experiment [2], the target named is C-lobe of calmodulin (residues 78-148) (UniProt P0DP23 79-149). Description: other fluorescence titration.

Turning to “long NSCaTE peptide: biosynthetically produced N-terminal region of Cav1.2 (residues 1–68), expressed in E. coli”, the “binding to apo-CaBP1” value in the experiment on apo-CaBP1 is “extremely weak”.

B1: long NSCaTE peptide, Cav1.2 N-terminal cytoplasmic region residues 1-68 (domain or fragment)
chain: MVNENTRMYIPEENHQGSNYGSPRPAHANMNANAAAGLAPEHIPTPGAALSWQAAIDAARQAKLMGSA
Regarding B1, the Ka in experiment [1] is 1.39e+06 M⁻¹; in experiment [2] it was 232000 M⁻¹.
